{
  "source": "patent US9228015B2",
  "about": "“Nogo receptor antagonists and methods of increasing neurite outgrowth” (Biogen Idec MA Inc., priority 2006, dated 2016)",
  "key": {"[1]": {"system": "chick dorsal root ganglion neurons, myelin-induced neurite outgrowth inhibition", "assay": "Neurite outgrowth of embryonic day 13 chick DRG neurons on myelin (Example 29)", "assay_type": "cell-based", "settings": "8 μM NgR(310)ecto-Fc; MP 10 μg/nl as printed", "method": "In investigating combined treatment with methyprednisolone (MP) and NgR(310)ecto-Fc for spinal cord injury (SCI), we sought to verify that these reagents have independent mechanisms of action. Briefly, myelin was dried overnight in poly-L-lysine-precoated plates (Becton Dickinson, Bedford, Mass., USA) at 80 or 400 ng/well (2.5 and 12.7 ng/mm^2, respectively). Wells were then coated with 10 µg/ml laminin (Calbiochem, La Jolla, Calif., USA) for 1 hour at foom temperature (22-24 C). Embryonic day 13 chick dorsal root ganglion neurons were dissociated and plated for 6-8 hours as previously described (GrandPre et al., 2000; Fournier et al., 2001). Neurons were treated with 8 μM NgR(310)ecto-Fc in the presence or absence of 10 μg/nl MP (Pharmacia, Kalamazoo, Mich., USA) for the entire outgrowth period. Neurons were then fixed and stained with βIII tubulin antibody (Covance, Princeton, N.J., USA) and neurite outgrowth was quantified using an automated cellular imaging and analysis system (Axon Instrument, Union City, Calif.; USA). Neurite outgrowth per cell was normalized to the average of duplicate control wells for each experiment (n=3). […] These in vitro data support the hypothesis that MP and NgR(310)ecto-Fc will enhance SCI recovery in a sequentially effective manner."}, "[2]": {"system": "rats with dorsal hemisection (CST transection)", "assay": "Functional recovery after spinal cord transection in rats (BBB, stride length; Example 30)", "assay_type": "in vivo, rat", "method": "Briefly, female Long Evans rats (7 weels old; Charles River, Wilmington, Mass., USA) were anesthetized using 25 mg/kg midazolam i.p. (Abott Laboratories, Chicago, Ill., USA) and 2-3% fluothane (Baxter, Deerfield, Ill., USA) in O2 and a dorsal laminectomy performed at spinal level T6 and T7. General anesthesia wa maintained at 1.5-2% fluothane in O2 A dorsal hemisection was performed completely interrupting the main dorsomedial and the mino dorsplateral corticospinal tract (CST) components. A microscapel was used to sterotaxically transect the cord at a depth of 1.8 mm from the surface of the cord. Immediately after CST transection, an intrathecal catheter was inserted into the subarachnoid space at T7 and connected to a primed mini-osmotic pump inserted into the subcutaneous space. […] Functional recovery was assessed using the BBB openfield scoring method (Basso et al., J. Neurotrauma 12:1-21 (1995)) the following day and weekly thereafter.\nA discriminating point on the BBB score is a score of 14, corresponding to consistent weight supported planter steps and consistent hindlimb-forelimb coordination."}, "[3]": {"system": "rats with CST transection", "assay": "BDA-labeled axon counts caudal to spinal cord transection in rats (Example 31)", "assay_type": "in vivo, rat", "settings": "15 mm caudal to the injury site", "method": "Treatment with NgR(310)ecto-Fc or combined treatment with MP and NgR(310)ecto-Fc enhanced axonal plasticity/regeneration after spinal cord transection. Briefly, for histological tracing of the CSTs, 2 weeks after CST transection animals were re-anesthetized and an incision made in the scalp. The area around the skin incision was injected with a local anesthetic, the left sensorimotor cortex exposed via a craniotomy and 7 μL 10% biotin dextran amine (BDA; 10,000 MW; Molecular Probes, Eugene, Oreg., USA) in PBS injected using a nanoliter injector and micro4 controller at 12 points 0-3.5 mm posterior to Bregma and […] lateral to the midline at a depth of 1 mm below the surface of the cortex. In some instances, the CST was labeled bilaterally using the same procedure.\nAt 28 days after CST transection, the rats were anesthetized with inactin (100-110 mg/kg i.p.) and transcardially perfused with heparinized saline (100 ml, 10 iu heparin) followed by 4% paraformaldehyde (150 ml). […]\nFrozen sections (50 μm) were serially cut and stained with strepavidin-conjugated AlexaFluor-594 (1:200; Molecular Probes) to visualize labeled CST axons. […] Every eighth section, i.e., sections 400 μm apart, was counted for each animal at each level of the cord and the values were expressed as mean number of axons per section."}},
  "data": [
    {"molecule": "NgR(310)ecto-Fc: ectodomain of the rat NgR1 (27-310) fused to a rat IgG (protein, left off: a dimerising Fc or GST, ectodomain of the rat NgR1 (27-310) fused to a rat IgG) PCPGACVCYNEPKVTTSRPQQGLQAVPAGIPASSQRIFLHGNRISYVPAASFQSCRNLTILWLHSNALAGIDAAAFTGLTLLEQLDLSDNAQLRVVDPTTFRGLGHLHTLHLDRCGLQELGPGLFRGLAALQYLYLQDNNLQALPDNTFRDLGNLTHLFLHGNRIPSVPEHAFRGLHSLDRLLLHQNHVARVHPHAFRDLGRLMTLYLFANNLSMLPAEVLVPLRSLQYLRLNDNPWVCDCRARPLWAWLQKFRGSSSGVPSNLPQRLAGRDLKRLATSDLEGCA", "values": [
      {"measurement": "effect on neurite outgrowth on a myelin substrate", "setting": "[1]", "result": "reverse the inhibition"},
      {"measurement": "BBB scores normalized to day 2", "setting": "[2]; 2, 3 and 4 weeks after SCI", "result": "significant improvement"},
      {"measurement": "mean stride length vs controls", "setting": "[2]; 4 weeks after SCI", "result": "significantly improved"},
      {"measurement": "Mean BBB score", "setting": "[2]; after 4 weeks", "result": "14.8±0.24"},
      {"measurement": "frequency of rats with BBB score of 14 or greater (consistent plantar stepping and coordinated movement)", "setting": "[2]; by 4 weeks", "result": 100, "unit": "%"},
      {"measurement": "number of BDA-labeled axons", "setting": "[3]", "result": "significantly greater numbers"}
    ]}
  ]
}
